Assay results as given in patent US20200317768A1 (published 2020).
Changes are numbered by the printed parent chain.

T1: cynomolgus monkey FcγRIIb extracellular domain, C-terminal His-tag (cynomolgus monkey)
T1 construct: also called cyno FcγRIIb; cynoFcγRIIb; not shown: His-tag added to C-terminus
T1 chain: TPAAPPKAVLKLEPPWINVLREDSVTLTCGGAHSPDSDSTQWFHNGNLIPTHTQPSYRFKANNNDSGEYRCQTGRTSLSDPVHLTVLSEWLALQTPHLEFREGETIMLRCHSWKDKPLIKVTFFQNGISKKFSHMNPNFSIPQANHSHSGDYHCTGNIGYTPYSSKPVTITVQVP

T2: cynomolgus monkey FcγRIIa1 extracellular domain, C-terminal His-tag (cynomolgus monkey)
T2 construct: also called cyno FcγRIIa1; cynoFcgRIIa1; not shown: His-tag added to C-terminus
T2 chain: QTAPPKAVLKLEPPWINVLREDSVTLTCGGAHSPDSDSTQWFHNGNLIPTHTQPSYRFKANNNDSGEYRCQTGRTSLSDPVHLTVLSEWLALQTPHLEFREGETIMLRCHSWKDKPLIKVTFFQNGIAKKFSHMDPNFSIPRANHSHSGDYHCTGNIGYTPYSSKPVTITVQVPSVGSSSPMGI

T3: cynomolgus monkey FcγRIIa2 extracellular domain, C-terminal His-tag (cynomolgus monkey)
T3 construct: also called cyno FcγRIIa2; cynoFcgRIIa2; not shown: His-tag added to C-terminus
T3 chain: T2 chain with P95T, T121A, I127K, A128S, K130N, D135N, R142Q

T4: human FcγRIIaR extracellular domain, C-terminal His-tag (human, UniProt P12318 34-217)
T4 construct: also called human FcγRIIa (type R); FcgRIIaR; not shown: His-tag added to C-terminus
T4 chain: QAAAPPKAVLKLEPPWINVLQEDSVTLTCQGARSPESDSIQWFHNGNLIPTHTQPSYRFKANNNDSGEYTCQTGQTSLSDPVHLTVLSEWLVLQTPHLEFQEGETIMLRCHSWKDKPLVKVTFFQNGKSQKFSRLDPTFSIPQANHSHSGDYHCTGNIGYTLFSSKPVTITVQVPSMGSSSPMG

T5: cynomolgus monkey FcγRIIa3 extracellular domain, C-terminal His-tag (cynomolgus monkey)
T5 construct: also called cyno FcγRIIa3; cynoFcgRIIa3; not shown: His-tag added to C-terminus
T5 chain: T2 chain with P95T, T121A, A128S, H133P, D135N

T6: human FcγRIIb extracellular domain, C-terminal His-tag (human, UniProt P31994 43-217)
T6 construct: also called FcgRIIb (human); not shown: His-tag added to C-terminus
T6 sequence: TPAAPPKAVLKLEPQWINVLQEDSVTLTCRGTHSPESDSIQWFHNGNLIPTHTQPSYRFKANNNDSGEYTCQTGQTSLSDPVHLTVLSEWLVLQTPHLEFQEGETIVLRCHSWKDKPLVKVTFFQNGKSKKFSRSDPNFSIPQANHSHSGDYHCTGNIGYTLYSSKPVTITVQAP

B1: M103205H795-MY292/M103202L889-SK1 (antibody, human IgG1, kappa)
heavy: QVTLKESGPVLVKPTETLTLTCTVSGIDLSHDDISWVRQAPGKGLEWVGIISYAGSTYYASWAKGRLTISKDTSKNQVVLTMTNMDPVDTATYYCARGVPAYSHGGDLWGQGTLVTVSSASTKGPSVFPLAPSSKSTSGGTAALGCLVKDYFPEPVTVSWNSGALTSGVHTFPAVLQSSGLYSLSSVVTVPSSSLGTQTYICNVNHKPSNTKVDKKVEPKSCDKTHTCPPCPAPELLGYPSVFLFPPKPKDTLMISRTPEVTCVVVDVSDEDPEVKFNWYVDGVEVHNAKTKPREELYNSTYRVVSVLTVLHQDWLNGKEYKCKVSNKALPKPIEKTISKAKGQPREPQVYTLPPSREEMTKNQVSLTCLVKGFYPSDIAVEWESNGQPENNYKTTPMVLDSDGSFFLYSKLTVDKSRWQQGNVFSCSVMHEALHNHYTQKSLSLSP
light: DIVMTQSPATLSLSPGERATLSCTSSQSVYHANWLSWFQQKPGQPPKLLIYWASTLAYGVPSRFSGSGSGTDFTLTISSLQPEDAATYYCAGGYGGGRYAFGQGTKVEIKRTVAAPSVFIFPPSDEQLKSGTASVVCLLNNFYPREAKVQWKVDNALQSGNSQESVTEQDSKDSTYSLSSTLTLSKADYEKHKVYACEVTHQGLSSPVTKSFNRGEC
B2: M103205H795-MY318/M103202L889-SK1 (antibody, human IgG1, kappa)
heavy: B1 heavy with G238L, Y239G, D270E, L297Q, K328T
light: B1 light
B3: M103205H795-MY321/M103202L889-SK1 (antibody, human IgG1, kappa)
heavy: B1 heavy with G238H, Y239G, L297Q
light: B1 light
B4: M103205H795-MY308/M103202L889-SK1 (antibody, human IgG1, kappa)
heavy: B1 heavy with G238T, Y239G, D270E, L297Q, M398P
light: B1 light
B5: M103205H795-MY310/M103202L889-SK1 (antibody, human IgG1, kappa)
heavy: B1 heavy with G238T, Y239G, D270E, L297Q, K328T, M398P
light: B1 light
B6: M103205H795-MY312/M103202L889-SK1 (antibody, human IgG1, kappa)
heavy: B1 heavy with G238T, Y239G, D270E, L297Q, K328T
light: B1 light
B7: M103205H795-MY293/M103202L889-SK1 (antibody, human IgG1, kappa)
heavy: B1 heavy with D270E, M398K
light: B1 light
B8: M103205H795-MY309/M103202L889-SK1 (antibody, human IgG1, kappa)
heavy: B1 heavy with G238T, Y239G, D270E, L297Q
light: B1 light
B9: M103205H795-MY311/M103202L889-SK1 (antibody, human IgG1, kappa)
heavy: B1 heavy with G238T, Y239G, D270E, M398P
light: B1 light

What was measured:
Assay in all cases: SPR (Biacore), antibody captured, FcgR analyte, 25 C
[1] = target: T1, cynomolgus monkey FcγRIIb extracellular …
[2] = target: T2, cynomolgus monkey FcγRIIa1 …
[3] = target: T3, cynomolgus monkey FcγRIIa2 …
[4] = target: T7, cynomolgus monkey FcγRIIIaS extracellular domain, C-terminal His-tag (cynomolgus monkey, UniProt A3RFZ7 21-206 (rhesus entry))
T7 construct: also called cyno FcγRIIIaS; cynoFcγRIIIaS; not shown: His-tag added to C-terminus
T7 sequence (A3RFZ7 21-206): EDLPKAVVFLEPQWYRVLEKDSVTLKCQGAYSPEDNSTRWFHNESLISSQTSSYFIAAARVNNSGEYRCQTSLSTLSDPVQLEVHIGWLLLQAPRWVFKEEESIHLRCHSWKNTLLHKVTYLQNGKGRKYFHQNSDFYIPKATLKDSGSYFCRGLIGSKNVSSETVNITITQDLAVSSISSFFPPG

[5] = target: T4, human FcγRIIaR extracellular domain, …
[6] = target: T8, human FcγRIIIaV extracellular domain, C-terminal His-tag (human, UniProt P08637 17-208)
T8 construct: also called FcgRIIIaV; not shown: His-tag added to C-terminus
T8 sequence (P08637 17-208 F176V): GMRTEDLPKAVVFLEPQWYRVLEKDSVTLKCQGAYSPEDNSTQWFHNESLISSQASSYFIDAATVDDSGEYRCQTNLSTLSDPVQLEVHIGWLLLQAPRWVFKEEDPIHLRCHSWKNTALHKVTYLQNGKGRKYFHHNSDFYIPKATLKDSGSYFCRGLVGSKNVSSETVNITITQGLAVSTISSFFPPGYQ

[7] = target: T5, cynomolgus monkey FcγRIIa3 …
[8] = target: T6, human FcγRIIb extracellular domain, …

Row | Binder | Kd [1] | Kd [2] | Kd [3] | Kd [4] | Kd [5] | Kd [6] | Kd [7] | Kd [8]
1 | B1 | 430 nM | 1500 nM | 2500 nM | 4000 nM | 76 nM | 28 µM | 2.2 µM | 140 nM
2 | B2 | 2200 nM | 7900 nM | 7700 nM | 1500 nM | 1300 nM | 8.7 µM | 32 µM | 4800 nM
3 | B3 | 540 nM | 2300 nM | 2200 nM | 11000 nM | 350 nM | 3.4 µM | 2.9 µM | 2600 nM
4 | B4 | 1300 nM | 3900 nM | 4600 nM | 2900 nM | 360 nM | 8.3 µM | 1.1 µM | 4100 nM
5 | B5 | 950 nM | 3000 nM | 2900 nM | 1800 nM | 550 nM | 6.9 µM | 7.2 µM | 2900 nM
6 | B6 | 400 nM | 1400 nM | 1500 nM | 650 nM | 170 nM | 2.8 µM | 3.7 µM | 1100 nM
7 | B7 | 860 nM | 2300 nM | 3300 nM | 4200 nM | 73 nM | 39 µM | 3.9 µM | 150 nM
8 | B8 | 710 nM | 3500 nM | 2500 nM | 1200 nM | 260 nM | 4.3 µM | 7 µM | 1600 nM
9 | B9 | 780 nM | 2300 nM | 3400 nM | 2400 nM | 450 nM | 7.1 µM | 8.6 µM | 2100 nM
